Among the data in patent publication US20170129962A1 (Hoffmann-La Roche, published 2017) are koff, kon and Kd values, retold here.

Where a chain is given by its changes, count along the chain named. Numbers in names are those of the source.

B1: Ang2VEGF-0454 (bispecific antibody, human IgG1, kappa)
light 1: QPGLTQPPSVSVAPGQTARITCGGNNIGSKSVHWYQQKPGQAPVLVVYDDSDRPSGIPERFSGSNSGNTATLTISRVEAGDEADYYCQVWDSSSDHYVFGTGTKVTVLRTVAAPSVFIFPPSDEQLKSGTASVVCLLNNFYPREAKVQWKVDNALQSGNSQESVTEQDSKDSTYSLSSTLTLSKADYEKHKVYACEVTHQGLSSPVTKSFNRGEC
heavy 1: not shown
light 2: DIQMTQSPSSLSASVGDRVTITCSASQDISNYLNWYQQKPGKAPKVLIYFTSSLHSGVPSRFSGSGSGTDFTLTISSLQPEDFATYYCQQYSTVPWTFGQGTKVEIKSSASTKGPSVFPLAPSSKSTSGGTAALGCLVKDYFPEPVTVSWNSGALTSGVHTFPAVLQSSGLYSLSSVVTVPSSSLGTQTYICNVNHKPSNTKVDKKVEPKSC
heavy 2: not shown
notes: also called Ang2VEGF-0454-0002; Ang2VEGF-0454-0002 (control)
B2: Ang2VEGF-0475 (bispecific antibody, human IgG1, kappa)
light 1: B1 light 1 with Q125E
heavy 1: not shown
light 2: B1 light 2
heavy 2: not shown
notes: CrossMAb CH1-CL, knob-into-hole with S354C/Y349C
B3: Ang2VEGF-0462 (bispecific antibody, human IgG1, kappa)
light 1: B1 light 1 with E124K, Q125R
heavy 1: not shown
light 2: B1 light 2
heavy 2: not shown
notes: CrossMAb CH1-CL, knob-into-hole with S354C/Y349C; also called Ang2VEGF-0462-0002
B4: Ang2VEGF-0466 (bispecific antibody, human IgG1, kappa)
light 1: B1 light 1 with Q37K, E124K, Q125K
heavy 1: not shown
light 2: B1 light 2 with Q38K
heavy 2: not shown
notes: CrossMAb CH1-CL, knob-into-hole with S354C/Y349C; also called Ang2VEGF-0466-0002
B5: Ang2VEGF-0465 (bispecific antibody, human IgG1, kappa)
light 1: B1 light 1 with Q37K, E124K, Q125K
heavy 1: not shown
light 2: B1 light 2 with Q38K
heavy 2: not shown
notes: CrossMAb CH1-CL, knob-into-hole with S354C/Y349C; also called Ang2VEGF-0465-0002
B6: Ang2VEGF-0461 (bispecific antibody, human IgG1, kappa)
light 1: B1 light 1 with E124K, Q125R
heavy 1: not shown
light 2: B1 light 2
heavy 2: not shown
notes: CrossMAb CH1-CL, knob-into-hole with S354C/Y349C; also called Ang2VEGF-0461-0002
B7: Ang2VEGF-0477 (bispecific antibody, human IgG1, kappa)
light 1: B1 light 1 with Q125K
heavy 1: not shown
light 2: B1 light 2
heavy 2: not shown
notes: as for B2
B8: Ang2VEGF-0474 (bispecific antibody, human IgG1, kappa)
light 1: B1 light 1 with Q125K
heavy 1: not shown
light 2: B1 light 2
heavy 2: not shown
notes: as for B2
B9: Ang2VEGF-0463 (bispecific antibody, human IgG1, kappa)
light 1: B1 light 1 with E124K, Q125R
heavy 1: not shown
light 2: B1 light 2
heavy 2: not shown
notes: CrossMAb CH1-CL, knob-into-hole with S354C/Y349C; also called Ang2VEGF-0463-0002
B10: Ang2VEGF-0464 (bispecific antibody, human IgG1, kappa)
light 1: B1 light 1 with Q37E, E124K, Q125K
heavy 1: not shown
light 2: B1 light 2 with Q38K
heavy 2: not shown
notes: CrossMAb CH1-CL, knob-into-hole with S354C/Y349C; also called Ang2VEGF-0464-0002
B11: Ang2VEGF-0476 (bispecific antibody, human IgG1, kappa)
light 1: B1 light 1 with Q125E
heavy 1: not shown
light 2: B1 light 2 with K205E
heavy 2: not shown
notes: as for B2
B12: Ang2VEGF-0456 (bispecific antibody, human IgG1, kappa)
light 1: B1 light 1 with Q125K
heavy 1: not shown
light 2: B1 light 2
heavy 2: not shown
notes: CrossMAb CH1-CL, knob-into-hole with S354C/Y349C; also called Ang2VEGF-0456-0002
B13: Ang2VEGF-0455 (bispecific antibody, human IgG1, kappa)
light 1: B1 light 1 with Q125K
heavy 1: not shown
light 2: B1 light 2
heavy 2: not shown
notes: CrossMAb CH1-CL, knob-into-hole with S354C/Y349C; also called Ang2VEGF-0455-0002
B14: Ang2VEGF-0459 (bispecific antibody, human IgG1, kappa)
light 1: B1 light 1
heavy 1: not shown
light 2: B1 light 2 with K139E
heavy 2: not shown
notes: CrossMAb CH1-CL, knob-into-hole with S354C/Y349C; also called Ang2VEGF-0459-0002
B15: Ang2VEGF-0460 (bispecific antibody, human IgG1, kappa)
light 1: B1 light 1
heavy 1: not shown
light 2: B1 light 2 with K205E
heavy 2: not shown
notes: CrossMAb CH1-CL, knob-into-hole with S354C/Y349C; also called Ang2VEGF-0460-0002

For one experiment, the target named is T1, human Ang-2-RBD-Fc (human, UniProt O15123 275-496, limits assumed).
T1 construct: domain: RBD; Analyte in solution; not shown: Fc part
T1 sequence (looked up): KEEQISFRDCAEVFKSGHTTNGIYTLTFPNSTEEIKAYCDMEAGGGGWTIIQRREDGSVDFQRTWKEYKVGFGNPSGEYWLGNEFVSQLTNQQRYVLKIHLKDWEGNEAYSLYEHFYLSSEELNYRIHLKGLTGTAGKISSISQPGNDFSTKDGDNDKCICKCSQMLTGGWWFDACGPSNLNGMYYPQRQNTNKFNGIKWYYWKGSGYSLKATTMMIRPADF
Nature of the experiment: SPR (Biacore T200), bispecific antibody captured by anti-human F(ab')2, Ang2-RBD-Fc as analyte, 1:1 Langmuir. As for the experimental part:
(§1) Binding of indicated antibodies to human Ang-2-RBD-Fc was investigated by surface plasmon resonance using a BIACORE® T200 instrument (GE Healthcare). Around 8000 (RU) of goat anti human F(ab′)₂ (10 μg/ml anti human F(ab)′₂; Order Code: 28958325; GE Healthcare Bio-Sciences AB, Sweden) were coupled on a Series S CMS chip (GE Healthcare BR-1005-30) at pH 5.0 by using an amine coupling kit supplied by the GE Healthcare. HBS-N (10 mM HEPES, 150 mM NaCl pH 7.4, GE Healthcare) was used as running buffer during the immobilization procedure. For the following kinetic characterization, sample and running buffer was PBS-T (10 mM phosphate buffered saline including 0.05% Tween20) at pH 7.4. The flow cell was set to 25° C.—and the sample block set to 12° C.—and primed with running buffer twice prior to kinetic characterization.
(§2) The bispecific antibody was captured by injecting a 5 nM solution for 25 sec at a flow of 5 μl/min. The association was measured by injection of human Ang2-RBD-Fc in various concentrations in solution for 120 sec at a flow of 30 μl/min starting with 100 nM in 1:3 serial dilutions. The dissociation phase was monitored for up to 180 sec and triggered by switching from the sample solution to running buffer. The surface was regenerated by 60 sec washing with a Glycine pH 2.1 solution at a flow rate of 30 μl/min. Bulk refractive index differences were corrected by subtracting the response obtained from a goat anti human F(ab′)₂ surface. Blank injections are also subtracted (=double referencing). For calculation of apparent KD the Langmuir 1:1 model was used.
(§3) Binding of the multispecific antibodies to their respective target antigens, i.e. ANG2 and VEGF, was assessed by Biacore® as described in the general methods section.
(Surface plasmon resonance follows binding to a sensor surface in real time, without labels.)
For B1, the koff was determined as 0.0182 s⁻¹ and the kon is 1.08e+07 M⁻¹ s⁻¹.
For B2 the same measures were 0.00505 s⁻¹ and 1.38e+06 M⁻¹ s⁻¹.
The molecule B3 displayed a koff of 0.0252 s⁻¹ and a kon of 1.21e+07 M⁻¹ s⁻¹.
As to B4, the koff came to 0.031 s⁻¹ and the kon was found to be 1.06e+07 M⁻¹ s⁻¹.
For B5, in that order: 0.0325 s⁻¹ and 1.17e+07 M⁻¹ s⁻¹.
For B6, in that order: 0.0163 s⁻¹ and 1.07e+07 M⁻¹ s⁻¹.
For B7, in that order: 0.00823 s⁻¹ and 2.19e+06 M⁻¹ s⁻¹.
Regarding B8, the off-rate (koff) came to 0.0097 s⁻¹ and the kon was found to be 2.04e+06 M⁻¹ s⁻¹.
For B9 the same measures were 0.0281 s⁻¹ and 9.54e+06 M⁻¹ s⁻¹.
For B10, in that order: 0.0172 s⁻¹ and 8.81e+06 M⁻¹ s⁻¹.
For B11 the same measures were 0.0114 s⁻¹ and 1.32e+06 M⁻¹ s⁻¹.
With B12, the koff was 0.0252 s⁻¹ and the kon was 1.16e+07 M⁻¹ s⁻¹.
For B13, in that order: 0.0227 s⁻¹ and 1.06e+07 M⁻¹ s⁻¹.
For B14, in that order: 0.0199 s⁻¹ and 8.8e+06 M⁻¹ s⁻¹.
For B15, in that order: 0.0163 s⁻¹ and 8.76e+06 M⁻¹ s⁻¹.

The next experiment concerns the target T2, human VEGFA-121 (VEGF-A-121-His) (human, UniProt P15692-9 27-147).
T2 construct: Captured on the chip through an anti-His antibody; not shown: His tag
T2 sequence (looked up): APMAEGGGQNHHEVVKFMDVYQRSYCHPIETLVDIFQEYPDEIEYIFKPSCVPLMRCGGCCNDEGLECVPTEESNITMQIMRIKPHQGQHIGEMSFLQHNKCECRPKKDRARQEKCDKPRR
Nature of the experiment: SPR (Biacore T200), VEGF-A-121-His captured by anti-His antibody, bispecific antibody as analyte, 1:1 Langmuir. The procedure: Around 10000 (RU) of anti His antibody (1 μg/ml anti His antibody; Order Code: 28995056; GE Healthcare Bio-Sciences AB, Sweden) were coupled on a Series S CM5 chip (GE Healthcare BR-1005-30) at pH 5.0 by using an amine coupling kit supplied by the GE Healthcare. HBS-N (10 mM HEPES, 150 mM NaCl pH 7.4, GE Healthcare) was used as running buffer during the immobilization procedure. For the following kinetic characterization, sample and running buffer was PBS-T (10 mM phosphate buffered saline including 0.05% Tween20) at pH 7.4. The flow cell was set to 25° C.—and the sample block set to 12° C.—and primed with running buffer twice prior to kinetic characterization.
as §3
Regarding B1, the Kd came to 4 nM, the dissociation rate constant (koff) was determined as 8.65e-05 s⁻¹ and the kon amounted to 20400 M⁻¹ s⁻¹.
For B2 the same measures were 7 nM, 7.26e-05 s⁻¹ and 10500 M⁻¹ s⁻¹.
On to B3, for which the Kd was determined as 4 nM, the off-rate (koff) worked out at 7.52e-05 s⁻¹ and the kon came out at 21200 M⁻¹ s⁻¹.
On to B4, for which the Kd was 4 nM, the koff was found to be 8.01e-05 s⁻¹ and the kon came out at 18600 M⁻¹ s⁻¹.
For B5 the same measures were 5 nM, 7.96e-05 s⁻¹ and 16000 M⁻¹ s⁻¹.
Take B6: the Kd turned out to be 4 nM, the koff is 7.67e-05 s⁻¹ and the kon worked out at 19200 M⁻¹ s⁻¹.
The molecule B7 came in with a Kd of 3 nM, a koff of 6.1e-05 s⁻¹ and a kon of 19500 M⁻¹ s⁻¹.
Molecule B8 came in with a Kd of 3 nM, a koff of 5.41e-05 s⁻¹ and a kon of 21300 M⁻¹ s⁻¹.
For B9 the same measures were 4 nM, 7.44e-05 s⁻¹ and 17600 M⁻¹ s⁻¹.
For B10 the same measures were 5 nM, 7.54e-05 s⁻¹ and 16600 M⁻¹ s⁻¹.
For B11, in that order: 4 nM, 6.94e-05 s⁻¹ and 18500 M⁻¹ s⁻¹.
Take B12: the Kd was determined as 4 nM, the koff stood at 8.4e-05 s⁻¹ and the kon turned out to be 21000 M⁻¹ s⁻¹.
Turning to B13, the Kd was found to be 7 nM, the koff is 9.01e-05 s⁻¹ and the kon worked out at 12600 M⁻¹ s⁻¹.
For B14, in that order: 4 nM, 7.19e-05 s⁻¹ and 17000 M⁻¹ s⁻¹.
For B15 the same measures were 6 nM, 8.18e-05 s⁻¹ and 14200 M⁻¹ s⁻¹.

The target of a further experiment is T1, human Ang-2-RBD-Fc. Nature of the experiment: SPR (Biacore T200), bispecific antibody captured by anti-human F(ab')2, Ang2-RBD-Fc as analyte, 1:1 Langmuir, apparent KD. The procedure:
as §1, §2
Regarding B1, the Kd is 2 nM.
The same measure, in the same setting: as for B2, the figure is 4 nM; as for B3, 2 nM.
With B4, the Kd came out at 3 nM.
As for B5, the Kd was found to be 3 nM.
Still for that read-out and setting: as for B6, the figure is 2 nM; as for B7, 4 nM.
The same measure, in the same setting: the same measure for B8: 5 nM; for B9: 3 nM; for B10: 2 nM.
Consider B11, for which the Kd came out at 9 nM.
On the same count and under the same terms, as for B12, the figure is 2 nM.
The same measure, in the same setting: the same measure for B13: 2 nM; for B14: 2 nM.
Same read-out and setting: the same measure for B15: 2 nM.

Usually koff stands for the first-order rate constant of dissociation. As usually defined, the kon is a measure of how fast the partners come together.
